Measurements: the supplement of paper PMC7877785
± gives the uncertainty stated by the source.

Assay: self-splicing fitness, log relative to wild type (ln ratio); higher = more splicing; Tetrahymena group I intron in knt gene, E. coli kanamycin selection, DiMSum; sequences stand for … in CUCUCU…GGAGGGAAAAGUUAUCAGGCAUGCACCUGGUAGCUAGUCUUUAAACCAAUAGAUUGCAUCGGUUUAAAAGGCAAGACCGUCAAAUUGCGGGAAAGGGGUCAACAGCCGUUCAGUACCAAGUCUCAGGGGAAACUUUGAGAUGGCCUUGCAAAGGGUAUGGUAAUAAGCUGACGGACAUGGUCCUAACCACGCAGCCAAGUCCUAAGUCAACAGAUCUUCUGUUGAUAUGGAUGCAGUUCACAGACUAAAUGUCGGUCGGGGAAGAUGUAUUCUUCUCAUAAGAUAUAGUCGGACCUCUCCUUAAUGGGAGCUAGCGGAUGAAGUGAUGCAACACUGGAGCCGCUGGGAACUAAUUUGUAUGCGAAAGUAUAUUGAUUAGUUUUGGAGUACUCGUGGUCG
Procedure, shortened: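 Pooled colonies went to amplicon sequencing on an Illumina HiSeq 2500 after six replicate transformations. The plates were LB agar with 100 μg/mL carbenicillin, 50 μM IPTG and 0.2% rhamnose, with or without 25 μg/mL kanamycin, incubated overnight at 37°C or 30°C. The E. coli BL21(DE3) library had all eight P1ex-region intron nucleotides randomised, the intron placed in the knt kanamycin-resistance gene on pET-22b(+). DiMSum fitness is the error-weighted combination of replicate fold changes, kanamycin against none, normalised to wild type.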

Row | Sequence | self-splicing fitness (ln) (30 °C) | self-splicing fitness (ln) (37 °C)
1 | CCCAAGCAAUAUUACGGAGG | -1.95 ± 0.22 | 
2 | AUCAAGCAAUAUUACGCUGU | -2.62 ± 0.097 | -1.1 ± 0.084
3 | AGGUAGCAAUAUUACGCGCC | -2.6 ± 0.032 | -1.56 ± 0.043
4 | CACUAGCAAUAUUACGGGGG | -2.43 ± 0.18 | -1.5 ± 0.17
5 | CGGCAGCAAUAUUACGGCCG | -3.13 ± 0.39 | -1.42 ± 0.39
6 | CUGUAGCAAUAUUACGAACC | -2.02 ± 0.47 | 
7 | ACGGAGCAAUAUUACGUACU | -1.69 ± 0.091 | -2.32 ± 0.16
8 | AAAGAGCAAUAUUACGAGGU | -4.63 ± 0.26 | -2.82 ± 0.19
9 | AGGGAGCAAUAUUACGUAGU | -3.35 ± 0.23 | -2.19 ± 0.35
10 | CGUGAGCAAUAUUACGCUAG | -2.9 ± 0.12 | -1.47 ± 0.21
11 | CUCUAGCAAUAUUACGCAAC | -3.63 ± 0.2 | -3.59 ± 0.28
12 | CCAAAGCAAUAUUACGGUAG | -1.99 ± 0.056 | -0.962 ± 0.066
13 | GUUGAGCAAUAUUACGCUUG | -2.79 ± 0.22 | -2.15 ± 0.27
14 | CGAAAGCAAUAUUACGGCCA | -1.29 ± 0.14 | -1.23 ± 0.099
15 | CGUGAGCAAUAUUACGCGGU | -3.83 ± 0.34 | -2.06 ± 0.32
16 | GGUAAGCAAUAUUACGAGUC | -2.59 ± 0.16 | -0.851 ± 0.13
17 | UUCUAGCAAUAUUACGGCAC |  | -0.626 ± 0.23
18 | GCCAAGCAAUAUUACGAACU | -1.3 ± 0.18 | -0.873 ± 0.22
19 | AUAUAGCAAUAUUACGUGGG | -3.53 ± 0.28 | -3.28 ± 0.33
20 | CUGAAGCAAUAUUACGCAAA | -4.27 ± 0.42 | 
21 | UGGUAGCAAUAUUACGACUU | -0.197 ± 0.16 | 0.212 ± 0.16
22 | UAUGAGCAAUAUUACGUUUU | -4.02 ± 0.32 | -2.45 ± 0.23
23 | UCAAAGCAAUAUUACGUAAU | -4.1 ± 0.21 | -3.66 ± 0.21
24 | GCGUAGCAAUAUUACGACGC | -3.7 ± 0.39 | 
25 | AAUAAGCAAUAUUACGACGA | -0.785 ± 0.11 | -0.362 ± 0.14

Row | Sequence | self-splicing fitness (ln) (30 °C) | self-splicing fitness (ln) (37 °C)
26 | GUUAAGCAAUAUUACGGCGU | -0.0268 ± 0.076 | -0.00868 ± 0.094
27 | AGUGAGCAAUAUUACGCUAU | -3.19 ± 0.23 | -2.43 ± 0.42
28 | CUGGAGCAAUAUUACGUACA |  | -1.28 ± 0.48
29 | AGUUAGCAAUAUUACGAGUC | -2.76 ± 0.33 | -3.27 ± 0.47
30 | GAAAAGCAAUAUUACGUGUC | -3.41 ± 0.13 | -2.33 ± 0.14
31 | GGUGAGCAAUAUUACGCUGA |  | -2.84 ± 0.48
32 | CUUAAGCAAUAUUACGGUUU | -4.49 ± 0.3 | -2.88 ± 0.4
33 | GGCCAGCAAUAUUACGUAGG | -2.19 ± 0.14 | -1.85 ± 0.18
34 | GGGAAGCAAUAUUACGAUCG | 0.00926 ± 0.13 | -0.00218 ± 0.13
35 | GUUAAGCAAUAUUACGUCCG | -1.77 ± 0.17 | -0.533 ± 0.23
36 | UCCAAGCAAUAUUACGUUCA | -1.4 ± 0.13 | -0.51 ± 0.11
37 | GCGCAGCAAUAUUACGUCUU | -0.65 ± 0.049 | 0.336 ± 0.064
38 | UUAAAGCAAUAUUACGGAGU | -3.35 ± 0.21 | -1.68 ± 0.19
39 | GCAUAGCAAUAUUACGCUAG | -2.24 ± 0.3 | -1.82 ± 0.23
40 | CCAAAGCAAUAUUACGGUUU | -3.21 ± 0.12 | -2.34 ± 0.15
41 | CAGUAGCAAUAUUACGCUCG | -0.354 ± 0.12 | -0.439 ± 0.17
42 | CCGAAGCAAUAUUACGUUAU | -3.94 ± 0.32 | -2.87 ± 0.2
43 | CAGGAGCAAUAUUACGGAAU | -2.62 ± 0.29 | -2.58 ± 0.39
44 | UACAAGCAAUAUUACGUGUA | -3.33 ± 0.15 | -2.69 ± 0.14
45 | ACAUAGCAAUAUUACGGACA | -1.57 ± 0.16 | -0.382 ± 0.14
46 | AGCGAGCAAUAUUACGGCCC | -1.03 ± 0.28 | -0.383 ± 0.24
47 | UUCAAGCAAUAUUACGGGUC | -4.54 ± 0.32 | -1.53 ± 0.14
48 | CAGAAGCAAUAUUACGGACG | -0.743 ± 0.092 | -0.739 ± 0.12
49 | AGAGAGCAAUAUUACGAAGG | -3.13 ± 0.39 | -1.42 ± 0.37
50 | UUUCAGCAAUAUUACGGGUC | -3.24 ± 0.26 | -2.14 ± 0.2
